Here are results for 4 molecules from PMC10528418 (Molecular cell, 2023).

Sequences and labels used below:
T1: TFIIIC subunit τ138 (S. cerevisiae, UniProt P34111 1-1160)
T1 sequence (looked up): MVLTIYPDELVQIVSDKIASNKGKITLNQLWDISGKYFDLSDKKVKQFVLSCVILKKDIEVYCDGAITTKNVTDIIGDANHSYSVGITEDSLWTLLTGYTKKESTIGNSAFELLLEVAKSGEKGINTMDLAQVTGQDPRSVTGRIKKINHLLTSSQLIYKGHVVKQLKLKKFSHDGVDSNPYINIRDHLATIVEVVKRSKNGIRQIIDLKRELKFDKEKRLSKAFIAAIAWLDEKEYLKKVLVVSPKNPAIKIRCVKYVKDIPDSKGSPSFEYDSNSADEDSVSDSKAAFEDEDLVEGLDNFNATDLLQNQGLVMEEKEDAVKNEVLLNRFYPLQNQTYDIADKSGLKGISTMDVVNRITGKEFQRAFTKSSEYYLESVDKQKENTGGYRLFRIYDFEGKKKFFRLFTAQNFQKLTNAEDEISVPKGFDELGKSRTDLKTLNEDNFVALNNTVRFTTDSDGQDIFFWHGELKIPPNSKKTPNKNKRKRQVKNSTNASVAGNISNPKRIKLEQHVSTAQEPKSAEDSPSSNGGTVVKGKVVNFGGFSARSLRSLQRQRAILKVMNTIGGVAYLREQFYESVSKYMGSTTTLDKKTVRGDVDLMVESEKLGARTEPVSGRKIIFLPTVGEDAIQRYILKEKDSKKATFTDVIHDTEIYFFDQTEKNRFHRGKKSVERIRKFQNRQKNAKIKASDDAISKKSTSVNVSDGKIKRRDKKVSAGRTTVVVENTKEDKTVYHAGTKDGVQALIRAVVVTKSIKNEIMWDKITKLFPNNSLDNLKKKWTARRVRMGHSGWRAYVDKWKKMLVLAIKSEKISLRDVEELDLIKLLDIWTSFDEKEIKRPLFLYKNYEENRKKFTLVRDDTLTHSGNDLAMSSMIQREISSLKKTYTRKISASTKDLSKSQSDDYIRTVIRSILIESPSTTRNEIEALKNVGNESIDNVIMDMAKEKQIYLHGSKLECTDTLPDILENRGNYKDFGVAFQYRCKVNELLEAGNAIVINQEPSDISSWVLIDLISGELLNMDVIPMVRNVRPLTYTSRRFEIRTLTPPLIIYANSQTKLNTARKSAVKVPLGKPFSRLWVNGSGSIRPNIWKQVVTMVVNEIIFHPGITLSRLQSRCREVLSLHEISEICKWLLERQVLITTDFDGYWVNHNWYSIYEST

B1: S. cerevisiae TFIIIA (natural protein)
chain: MGGEVLNNEGMPLAELKQETIPISRSESSESLNSLTSTRSSSSNRPKTYFCDYDGCDKAFTRPSILTEHQLSVHQGLRAFQCDKCAKSFVKKSHLERHLYTHSDTKPFQCSYCGKGVTTRQQLKRHEVTHTKSFICPEEGCNLRFYKHPQLRAHILSVHLHKLTCPHCNKSFQRPYRLRNHISKHHDPEVENPYQCTFAGCCKEFRIWSQLQSHIKNDHPKLKCPICSKPCVGENGLQMHMIIHDDSLVTKNWKCHICPDMSFSRKHDLLTHYGSIHTEEDIPLELKYKISDIQQLVQDHGVQLGNSKHSNEQDEEKISNRLRKRRKLTENNNVEFLQNEVDLEKRLESGENGLNLLLNTVGRKYRCFYNNCSRTFKTKEKYEKHIDKHKVHELKLKILQEKEENKTLVDQNHKEPFIIQKETQSAGDK
B2: TFIIIC subunit τ131 (natural protein, S. cerevisiae, UniProt P33339 1-1025, looked up)
chain: MAAGKLKKEQQNQSAERESADTGKVNDEDEEHLYGNIDDYKHLIQDEEYDDEDVPHDLQLSEDEYNSERDSSLLAEFSDYGEISEDDEEDFMNAIREASNFKVKKKKKNDKGKSYGRQRKERVLDPEVAQLLSQANEAFVRNDLQVAERLFNEVIKKDARNFAAYETLGDIYQLQGRLNDCCNSWFLAAHLNASDWEFWKIVAILSADLDHVRQAIYCFSRVISLNPMEWESIYRRSMLYKKTGQLARALDGFQRLYMYNPYDANILRELAILYVDYDRIEDSIELYMKVFNANVERREAILAALENALDSSDEESAAEGEDADEKEPLEQDEDRQMFPDINWKKIDAKYKCIPFDWSSLNILAELFLKLAVSEVDGIKTIKKCARWIQRRESQTFWDHVPDDSEFDNRRFKNSTFDSLLAAEKEKSYNIPIDIRVRLGLLRLNTDNLVEALNHFQCLYDETFSDVADLYFEAATALTRAEKYKEAIDFFTPLLSLEEWRTTDVFKPLARCYKEIESYETAKEFYELAIKSEPDDLDIRVSLAEVYYRLNDPETFKHMLVDVVEMRKHQVDETLHRISNEKSSNDTSDISSKPLLEDSKFRTFRKKKRTPYDAERERIERERRITAKVVDKYEKMKKFELNSGLNEAKQASIWINTVSELVDIFSSVKNFFMKSRSRKFVGILRRTKKFNTELDFQIERLSKLAEGDSVFEGPLMEERVTLTSATELRGLSYEQWFELFMELSLVIAKYQSVEDGLSVVETAQEVNVFFQDPERVKMMKFVKLAIVLQMDDEEELAENLRGLLNQFQFNRKVLQVFMYSLCRGPSSLNILSSTIQQKFFLRQLKAFDSCRYNTEVNGQASITNKEVYNPNKKSSPYLYYIYAVLLYSSRGFLSALQYLTRLEEDIPDDPMVNLLMGLSHIHRAMQRLTAQRHFQIFHGLRYLYRYHKIRKSLYTDLEKQEADYNLGRAFHLIGLVSIAIEYYNRVLENYDDGKLKKHAAYNSIIIYQQSGNVELADHLMEKYLSI
B3: TFIIIC subunit τ95 (natural protein, S. cerevisiae, UniProt P32367 1-649, looked up)
chain: MPVEEPLATLSSIPDSSADQAPPLIADEFTLDLPRIPSLELPLNVSTKHSSIQKAIKMCGGIEKVKEAFKEHGPIESQHGLQLYLNDDTDSDGSKSYFNEHPVIGKRVPFRDESVILKVTMPKGTLSKNNNSVKDSIKSLKDSNKLRVTPVSIVDNTIKFREMSDFQIKLDNVPSAREFKSSFGSLEWNNFKSFVNSVPDNDSQPQENIGNLILDRSVKIPSTDFQLPPPPKLSMVGFPLLYKYKANPFAKKKKNGVTEVKGTYIKNYQLFVHDLSDKTVIPSQAHEQVLYDFEVAKKTKVYPGTKSDSKFYESLEECLKILRELFARRPIWVKRHLDGIVPKKIHHTMKIALALISYRFTMGPWRNTYIKFGIDPRSSVEYAQYQTEYFKIERKLLSSPIVKKNVPKPPPLVFESDTPGGIDSRFKFDGKRIPWYLMLQIDLLIGEPNIAEVFHNVEYLDKANELTGWFKELDLVKIRRIVKYELGCMVQGNYEYNKYKLKYFKTMLFVKESMVPENKNSEEGMGVNTNKDADGDINMDAGSQMSSNAIEEDKGIAAGDDFDDNGAITEEPDDAALENEEMDTDQNLKVPASIDDDVDDVDADEEEQESFDVKTASFQDIINKIAKLDPKTAETMKSELKGFVDEVDL
B4: TFIIIC subunit τ91 (natural protein, S. cerevisiae, UniProt Q06339 1-672, looked up)
chain: MAVIPAKKRGRPRKSVVAEVPYDSLASPVSENSGSKRPRRNASKKAVANFAQLVHAGRDDVINTTQVNNVDDTDDDDFVLNDEGDGEESDNVEIEFENELESTKNEVADLNSSGSGASVRPSGRRNTVQKLRLKKNSTKNMKSSSPGSSLGQKGRPIRLLKDLSSARDKIERIYGLNKEKLLLLAKVKEGFETSVFDFPFKNIQPDSPYFVCLDPPCKKESAYNKVIGDKNRTVYHEINKTEFENMIKLRTKRLKLLIGEVDAEVSTGDKIEFPVLANGKRRGFIYNVGGLVTDIAWLNIEENTDIGKDIQYLAVAVSQYMDEPLNEHLEMFDKEKHSSCIQIFKMNTSTLHCVKVQTIVHSFGEVWDLKWHEGCHAPHLVGCLSFVSQEGTINFLEIIDNATDVHVFKMCEKPSLTLSLADSLITTFDFLSPTTVVCGFKNGFVAEFDLTDPEVPSFYDQVHDSYILSVSTAYSDFEDTVVSTVAVDGYFYIFNPKDIATTKTTVSRFRGSNLVPVVYCPQIYSYIYSDGASSLRAVPSRAAFAVHPLVSRETTITAIGVSRLHPMVLAGSADGSLIITNAARRLLHGIKNSSATQKSLRLWKWDYSIKDDKYRIDSSYEVYPLTVNDVSKAKIDAHGINITCTKWNETSAGGKCYAFSNSAGLLTLEYLS

In one experiment the target is T1, TFIIIC subunit τ138. Briefly: cryo-EM structure.
The experiment “TFIIIC subunit τ131” deals with B2. As to the kind of experiment: cryo-EM structure.

Regarding B1, the binding result with TFIIIC subunit τ138 is “binds”. For B2, the binding result with TFIIIC subunit τ138 is recorded as “binds”. Consider B3, for which the binding result with TFIIIC subunit τ138 and with TFIIIC subunit τ131 was “binds” in each case. Take B4: in the experiment with TFIIIC subunit τ131, the binding result was “binds”.
